Values joined by “and” are separate entries in the source; they are usually repeats but may differ in a detail not shown here. Identical values can stand only once.
Experiments:
Assay in all cases: other fluorescence titration
[1] = molecular target: 147-bp nucleosome, which contains no linker DNA (Nuc147) (Xenopus laevis)
[2] = molecular target: 207-bp linker DNA-containing nucleosome (Nuc207) (Xenopus laevis)
[3] = molecular target: an individual nucleosome, whether mono or as part of an array
[4] = molecular target: histone H2A-H2B complex, fluorescently labeled (Xenopus laevis) (UniProt P06897)
[5] = molecular target: tail-less histone H2A-H2B complex, fluorescently labeled (Xenopus laevis) (UniProt P06897)
[6] = molecular target: tri-nucleosome array LE (linker-ended), 621-bp DNA (Xenopus laevis)
[7] = molecular target: tri-nucleosome array NLE (nonlinker-ended), 561-bp DNA (Xenopus laevis)
[8] = molecular target: histone H3-H4 complex, fluorescently labeled (Xenopus laevis) (UniProt P84233)

Substance: SSRP1 (structure-specific recognition protein 1) subunit of FACT (from UniProt Q08945 1-709) (natural protein)
- Kd [1]: > 1000 nM
- Kd [2]: 67 nM

Substance: FACT (facilitates chromatin transcription) complex, full-length, de-phosphorylated (from UniProt Q9Y5B9;Q08945)
- Kd [1]: 64 nM
- Kd [2]: 22 nM
- stoichiometry N (FACT molecules per nucleosome) [3]: 1 and 2
- Kd [4]: 31 nM
- fold lower affinity than for tail-containing H2A-H2B [5]: 7 fold
- Kd [6]: 26 nM
- stoichiometry N (FACT:tri-nucleosome) [6]: 3.3
- Kd [7]: 36 nM
- stoichiometry N (FACT:tri-nucleosome) [7]: 2.4

Substance: FACTΔCTD (Spt16 acidic C-terminal domain truncation + SSRP1) (from UniProt Q9Y5B9;Q08945) (complex)
- fold less affinity than FACT [2]: 20 fold
- fold less affinity than SSRP1 alone [2]: 7 fold
- fold increase of Kd(app) against full-length FACT [4]: 6 fold
- Kd [8]: > 1000 nM

Substance: Spt16 (Suppressor of ty 16) subunit of FACT (from UniProt Q9Y5B9 1-1047) (natural protein)
- Kd [4]: 85 nM
